Experimental data published in publication PMC5137425.

Columns and labels:
[1] = target: C. elegans TDP2 UBA domain, CeTDP2 (41-100) (C. elegans) (UniProt Q9XWG3); assay: fluorescence polarisation
[2] = target: Human ubiquitin (monoUb) (human) (UniProt P0CG48); assay: NMR titration
[3] = target: C. elegans TDP2 UBA domain, CeTDP2 (41-100) (C. elegans) (UniProt Q9XWG3); assay: NMR titration

| Kd [1] [µM] | Kd [2] [µM] | Kd [3] [µM] | Substance |
| --- | --- | --- | --- |
| 8.4 |  |  | K48-linked diubiquitin (from UniProt P0CG48 1-76) (complex) |
|  | 100 |  | C. elegans TDP2 UBA domain, CeTDP2 (41-100) (from UniProt Q9XWG3 41-100) (domain or fragment) |
|  |  | 10.2 | K63-linked diubiquitin (from UniProt P0CG48 1-76) (complex) |
| 40 |  | 120 | Human ubiquitin (monoUb) (from UniProt P0CG48 1-76) (natural protein) |
